From patent publication US20250066446A1, “FUSION PROTEINS FOR THE TREATMENT OF CARDIOMETABOLIC DISEASES” (Shattuck Labs, Inc., priority 2022, published 2025)

Columns and labels:
recombinant human GDF-8 = target: T1, recombinant human GDF-8 (Homo sapiens, UniProt O14793); assay: MSD platform-based binding assay to plate-bound GDF-8; settings: 3× serial dilutions of culture supernatants of HEK293T cells transfected with mmRNA constructs
T1 sequence (O14793 267-375): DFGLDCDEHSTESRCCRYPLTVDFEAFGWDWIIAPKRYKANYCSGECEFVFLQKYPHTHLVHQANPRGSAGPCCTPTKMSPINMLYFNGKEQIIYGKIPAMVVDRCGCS
Method: (§1) The binding by a recombinant human ACVR2B-Fc fusion protein to GDF-8 (also known as myostatin) was characterized using a Meso Scale Discovery (MSD) platform-based assay. Briefly, GDF-8 was coated on a plate and 8× serial dilutions of the purified recombinant human ACVR2B-Fc fusion protein were also added in a series of wells. The protein captured by the plate-bound GDF-8 was detected using an anti-human Fc antibody and a SULFO-TAG conjugated secondary antibody.
(§2) The binding to GDF-8 by the GLP-1-Fc-ACVR2B fusion protein produced using the mmRNA constructs was investigated using a Meso Scale Discovery (MSD) platform-based assay. Briefly, HEK293T cells were transfected with each mRNA construct using lipofectamine 2000, and culture supernatants were collected after 48 hours. GDF-8 was coated on a plate, and 3× serial dilutions of the culture supernatants were added to the plate for capture by the plate-bound GDF-8. The protein captured by the plate-bound GDF-8 was detected using an anti-human Fc antibody and a SULFO-TAG conjugated secondary antibody. The MSD signals generated by the culture supernatants of HEK293T cells transfected with different mmRNA constructs were plotted as a line graph.

[1] = target: T2, recombinant human Activin A (Homo sapiens, UniProt P08476); assay: MSD platform-based binding assay to plate-bound Activin A; settings: 3× serial dilutions of culture supernatants of HEK293T cells transfected with mmRNA constructs
T2 sequence (P08476 311-426): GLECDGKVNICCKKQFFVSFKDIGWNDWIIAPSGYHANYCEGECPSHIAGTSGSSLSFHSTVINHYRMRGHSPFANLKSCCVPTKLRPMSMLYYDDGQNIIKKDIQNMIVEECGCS
Method: as §1, with “to activin A” for “to GDF-8”, “as Inhibin beta A)” for “as myostatin)”, “Briefly, Activin A” for “Briefly, GDF-8”, “plate-bound Activin A” for “plate-bound GDF-8”
as §2, with “Activin A” for “GDF-8”, “Activin A.” for “GDF-8.”

B1: GLP-1-Fc-ACVR2B chimeric protein: GLP-1 fused to ACVR2B extracellular domain via a hinge-CH2-CH3 Fc domain derived from IgG1; SEQ ID NO: 154 (protein)
chain: SGRGEAETRECIYYNANWELERTNQSGLERCEGEQDKRLHCYASWRNSSGTIELVKKGCWLDDFNCYDRQECVATEENPQVYFCCCEGNFCNERFTHLPEAGGPEVTYEPPPTAPTLLT
binding to GDF-8 (recombinant human GDF-8): binds to the human GDF-8 | binding to Activin A [1]: binds to the human Activin A
